US20230190950A1, “COMPOSITIONS AND METHODS FOR THE TREATMENT OF BACTERIAL INFECTIONS” (Cidara Therapeutics, Inc., priority 2017, published 2023)

T1: recombinant mouse FcRn (Mus musculus, UniProt Q61559)
T1 construct: purchased R&D 6775-FC-050
T1 sequence (Q61559 22-297 limits assumed): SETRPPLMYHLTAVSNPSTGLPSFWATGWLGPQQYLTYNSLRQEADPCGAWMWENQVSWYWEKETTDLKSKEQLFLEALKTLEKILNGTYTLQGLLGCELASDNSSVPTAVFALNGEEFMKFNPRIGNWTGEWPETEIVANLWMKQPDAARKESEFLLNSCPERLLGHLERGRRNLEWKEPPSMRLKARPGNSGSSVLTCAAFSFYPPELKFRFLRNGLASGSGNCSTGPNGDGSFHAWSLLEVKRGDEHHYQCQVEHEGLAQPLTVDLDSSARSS
T1 sequence (P01887 21-119 partner): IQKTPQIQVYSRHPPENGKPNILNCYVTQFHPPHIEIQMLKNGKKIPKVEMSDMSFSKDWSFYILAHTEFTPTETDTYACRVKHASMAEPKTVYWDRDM


Columns and labels:
[1] = tested on: Escherichia coli ATCC BAA-2469; assay: MIC assay (broth microdilution), Ec 2469; assay type: cell-based; conditions: assay media RPMI A
Description: (§1) Bacterial strains were stored as glycerol stocks at −80° C. prior to culturing on cation-adjusted Mueller-Hinton agar (MHA; BD cat. no. 211438) at 37° C. Antibacterial activity was assessed against a panel consisting of Escherichia coli, Acinetobacter baumannii, Pseudomonas aeruginosa, and Klebsiella pneumoniae strains (see Table 2).
(§2) Briefly, stock solutions of all antibacterial agents were prepared fresh in appropriate solvents (i.e. PBS, pH 7.4, DMSO, DI, etc.). Stock concentrations were made at 50× the highest final assay concentration and serially diluted 2-fold, 8 or 12 times in a 96-well PCR plate (VWR cat. no. 83007-374). Bacterial cell suspensions generated from MHA plate cultures were prepared in 0.85% saline and adjusted to ˜0.1 OD600 nm. […] Dorschner R A et al., The mammalian ionic environment dictates microbial susceptibility to antimicrobial defense peptides. FASEB J. 20(1):35-42 (2017). Ninety-eight microliters of each cell suspension in MHB were added to test wells in a 96-well assay plate (Costar cat. no. 3370). A Beckman Multimek 96 liquid handling robot was used to dispense 2 μL of each 50× stock compound into the plate containing 98 μL of each strain in MHB (2% final solvent concentration). E. coli strains BW25113 and ATCC 25922 were run in the presence and absence of 50% heat-inactivated fetal bovine serum (FBS; Sigma, cat. no. F4135-100 mL). Plates were mixed by shaking then incubated at 37° C. overnight (16-20 h).

Escherichia coli BW25113 = assay: MIC assay (broth microdilution), Ec BW; assay type: cell-based; conditions: assay media RPMI A; for MIC, Ec BW + FBS: 50% heat-inactivated FBS
Description: as §1, §2

recombinant mouse FcRn = biological target: T1, recombinant mouse FcRn; assay: Binding of conjugates to FcRn (ELISA), mouse; conditions: pH 6.25; 20 μg/mL starting concentration, 2-fold diluted
Description: 96-well ELISA plates (Fisher, Cat. No. 12-565-136) were coated with 0.25 μg/well of recombinant mouse FcRn (R&D, Cat. No. 6775-FC-050) or recombinant human FcRn (R&D, Cat. No. 8639-FC-050) in carbonate-bicarbonate buffer (Sigma, Cat. No. C34041) at pH 6.25 overnight at 37° C. A pH of 6.25 was maintained during the complete experiment. Blocking was carried out with 5% skim milk in PBS with 0.05% Tween 20. Purified conjugates were added at 20 μg/mL starting concentration and serially 2-fold diluted in blocking buffer. For detection, HRP-labeled secondary anti-mouse IgG-HRP (GE Healthcare, Cat. No. NA931V) or anti-human IgG-HRP (GE Healthcare, Cat. No. NA933V) was used to detect the bound conjugates. Absorbance was measured at 450 nm with a 96-well microplate reader and data were analyzed using GraphPad Prism software, FIGS. 33A-33F.

[2] = tested on: Escherichia coli ATCC 25922; assay: MIC assay (broth microdilution), Ec 25922; assay type: cell-based; conditions: assay media RPMI A; for MIC, Ec 25922 + FBS: 50% heat-inactivated FBS
Description: as §1, §2

[3] = tested on: Acinetobacter baumannii ATCC 19606; assay: MIC assay (broth microdilution), Ab 19606; assay type: cell-based; conditions: assay media RPMI A
Description: as §1, §2

[4] = tested on: Escherichia coli BW25113 4X-12 (COL-R); assay: MIC assay (broth microdilution), Ec BW 4X-12 (COL-R); assay type: cell-based; conditions: assay media RPMI A
Description: as §1
(§3) Briefly, stock solutions of all antibacterial agents were prepared fresh in appropriate solvents (i.e. PBS, pH 7.4, DMSO, DI, etc.). Stock concentrations were made at 50× the highest final assay concentration and serially diluted 2-fold, 8 or 12 times in a 96-well PCR plate (VWR cat. no. 83007-374). Bacterial cell suspensions generated from MHA plate cultures were prepared in 0.85% saline and adjusted to ˜0.1 OD600 nm. Next, cell suspensions were diluted 1:200 in RPMI containing 5% Luria Broth (LB) to improve bacterial growth (BD Difco, cat. no. 244620) to a concentration of ˜5×10^5 CFU (colony-forming units)/mL. […] Later, conjugates 16 and 17, and 20-25 were evaluated in RPMI 1640 medium (+) L-glutamine, (+) sodium bicarbonate, pH 7.4 (“RPMI B”; Gibco, cat. no. 11875-085) as has been described as a more physiologically-relevant media for susceptibility testing of antibacterial compounds. Dorschner R A et al., The mammalian ionic environment dictates microbial susceptibility to antimicrobial defense peptides. FASEB J. 20(1):35-42 (2017). Ninety-eight microliters of each cell suspension in MHB were added to test wells in a 96-well assay plate (Costar cat. no. 3370). A Beckman Multimek 96 liquid handling robot was used to dispense 2 μL of each 50× stock compound into the plate containing 98 μL of each strain in MHB (2% final solvent concentration). E. coli strains BW25113 and ATCC 25922 were run in the presence and absence of 50% heat-inactivated fetal bovine serum (FBS; Sigma, cat. no. F4135-100 mL). Plates were mixed by shaking then incubated at 37° C. overnight (16-20 h).

[5] = tested on: Pseudomonas aeruginosa PAO1; assay: MIC assay (broth microdilution), Pa PAO1; assay type: cell-based; conditions: assay media RPMI A
Description: as §1, §3

[6] = tested on: Escherichia coli BW25113 + pUC18-mcr-1; assay: MIC assay (broth microdilution), Ec BW (mcr-1); assay type: cell-based; conditions: assay media RPMI A
Text: An mcr-1 expression plasmid was constructed (GenScript; Piscataway, N.J.) using the pUC18 high copy number plasmid (Yanisch-Perron, et al., 1985). A 1649-bp fragment was synthesized containing, in order from 5′ to 3′: EcoR1 restriction site (5′-GAATTC-3′), a ribosomal binding site (5′-AGGAGG-3′), a 5-bp native start codon upstream sequence (5′-TTCTC-3′) from the mcr-1-bearing plasmid pHNSHP45 (Liu, Y Y, et al., 2015; GenBank Accession #KP347127), the 1626-bp mcr-1 open reading frame with stop codon (“orf00073” of GenBank Accession #KP347127), and finally an Xba1 restriction site sequence (5′-TCTAGA-3′). […] The pUC18-mcr-1 plasmid was transformed into chemically-competent E. coli BW25113 (Coli Genetic Stock Center #7636) as described previously (Chung, et al., PNAS. 1989), recovered for 1 h shaking at 37° C. in Super Optimal broth with Catabolite repression (SOC) media and then aliquots were plated on Luria-Bertani (LB) media containing 100 μg/mL of carbenicillin. Putative transformant colonies were then verified in MIC assays.
as §1
Briefly, stock solutions of all antibacterial agents were prepared fresh in appropriate solvents (i.e. PBS, pH 7.4, DMSO, DI, etc.). Stock concentrations were made at 50× the highest final assay concentration and serially diluted 2-fold, 8 or 12 times in a 96-well PCR plate (VWR cat. no. 83007-374). Bacterial cell suspensions generated from MHA plate cultures were prepared in 0.85% saline and adjusted to ˜0.1 OD600 nm. […] Later, conjugates 16 and 17, and 20-25 were evaluated in RPMI 1640 medium (+) L-glutamine, (+) sodium bicarbonate, pH 7.4 (“RPMI B”; Gibco, cat. no. 11875-085) as has been described as a more physiologically-relevant media for susceptibility testing of antibacterial compounds. […]

[7] = tested on: Acinetobacter baumannii ABS075-UW; assay: MIC assay (broth microdilution), Ab ABS075; assay type: cell-based; conditions: assay media RPMI A
Description: as §1, §2

Molecule	MIC, Ec 2469 [1] [µg/mL]	MIC, Ec BW (Escherichia coli BW25113) [µg/mL]	MIC, Ec BW + FBS (Escherichia coli BW25113) [µg/mL]	binding to mouse FcRn (ELISA) (recombinant mouse FcRn)	MIC, Ec 25922 [2] [µg/mL]	MIC, Ec 25922 + FBS [2] [µg/mL]	MIC Ab 19606 [3] [µg/mL]	MIC, Ec BW 4X-12 (COL-R) [4] [µg/mL]	MIC Pa PAO1 [5] [µg/mL]	MIC, Ec BW (mcr-1) [6] [µg/mL]	MIC Ab AB5075 [7] [µg/mL]
Conjugate 15 (conjugate, cyclised or stapled) PRGPTIKPCPPCKCPAPNLLGGPSVFIFPPKIKDVLMISLSPIVTCVVVDVSEDDPDVQISWFVNNVEVHTAQTQTHREDYNSTLRVVSALPIQHQDWMSGKEFKCKVNNKDLPAPIERTISKPKGSVRAPQVYVLPPPEEEMTKKQVTLTCMVTDFMPEDIYVEWTNNGKTELNYKNTEPVLDSDGSYFMYSKLRVEKKNWVERNSYSCSVVHEGLHNHHTTKSFSRTPGKHHHHHH	>128	>128	>128	does not interfere with FcRn interaction	>128	>128	>128	>128	16	>128	>128
Conjugate 4 (conjugate, cyclised or stapled) PRGPTIKPCPPCKCPAPNLLGGPSVFIFPPKIKDVLMISLSPIVTCVVVDVSEDDPDVQISWFVNNVEVHTAQTQTHREDYNSTLRVVSALPIQHQDWMSGKEFKCKVNNKDLPAPIERTISKPKGSVRAPQVYVLPPPEEEMTKKQVTLTCMVTDFMPEDIYVEWTNNGKTELNYKNTEPVLDSDGSYFMYSKLRVEKKNWVERNSYSCSVVHEGLHNHHTTKSFSRTPGKHHHHHH	>128	32	32	does not interfere with FcRn interaction	>128	64	32	>128	16	>128	32
